In article PMC4751086 (2016) one finds Kd data, which are given here for one molecule.

One test has as its target T1, HD-PTP(1–361;T145K) (human, UniProt Q9H3S7 1-361, T145K).
T1 sequence: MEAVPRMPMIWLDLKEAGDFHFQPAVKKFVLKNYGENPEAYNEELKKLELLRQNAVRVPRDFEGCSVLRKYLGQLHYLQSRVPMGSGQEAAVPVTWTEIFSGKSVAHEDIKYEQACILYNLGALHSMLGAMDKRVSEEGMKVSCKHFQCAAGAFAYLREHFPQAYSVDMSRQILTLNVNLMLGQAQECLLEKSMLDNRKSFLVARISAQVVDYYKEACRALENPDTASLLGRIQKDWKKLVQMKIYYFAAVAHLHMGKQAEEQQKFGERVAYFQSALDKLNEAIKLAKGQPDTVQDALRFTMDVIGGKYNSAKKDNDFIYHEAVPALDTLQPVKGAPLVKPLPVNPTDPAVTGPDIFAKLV
The experiment in a line: ITC.

For a further test, the target named is T2, HD-PTP(1–361;T145R) (human, UniProt Q9H3S7 1-361, T145R).
T2 sequence: T1 sequence with K145R
Put plainly: ITC. For orientation: ITC needs no label: the signal is the heat of the interaction.

Changes are numbered by the printed parent chain.

In the case of KEEEDDDMKELENWAGSM [CHMP4B(207–224)], the Kd with HD-PTP(1–361;T145K) amounted to 4.02 µM; with HD-PTP(1–361;T145R), 3.89 µM.

In general, Kd refers to the free concentration of one partner at which half of the binding sites on the other are occupied at equilibrium, for simple one-to-one binding. A low value points to a tighter complex.
